Numbered stars: 1 amine (or outer) side, 2 acyl side, 3 side chain; on linkers, the order of the positions; unused ones are H or OH. * marks the point of attachment. C20 diacid = O=C(O)CCCCCCCCCCCCCCCCCCC(=O)*; γGlu = O=C(O)[C@H](CCC(=O)[*:2])N[*:1]
T1: human calcitonin receptor (human, UniProt P30988 25-474)
T1 construct: whole, on cells; also called hCT-R; hCTR
T1 sequence (looked up): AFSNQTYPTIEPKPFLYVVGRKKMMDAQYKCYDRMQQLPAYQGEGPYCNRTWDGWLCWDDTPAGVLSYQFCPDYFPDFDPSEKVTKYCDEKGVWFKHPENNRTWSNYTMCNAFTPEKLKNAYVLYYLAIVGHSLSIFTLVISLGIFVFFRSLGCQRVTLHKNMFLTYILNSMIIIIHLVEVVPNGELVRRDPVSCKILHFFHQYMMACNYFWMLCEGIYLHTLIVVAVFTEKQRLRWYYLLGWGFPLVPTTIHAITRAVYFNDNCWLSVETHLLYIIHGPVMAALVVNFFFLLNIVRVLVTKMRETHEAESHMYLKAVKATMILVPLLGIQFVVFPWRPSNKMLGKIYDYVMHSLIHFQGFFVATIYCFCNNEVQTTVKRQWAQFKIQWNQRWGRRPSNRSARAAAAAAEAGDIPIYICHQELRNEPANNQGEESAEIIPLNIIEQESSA


Target: T1, human calcitonin receptor
Test: whole-cell competition vs 125I-human calcitonin (Assay VIIa)
In short: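 BHK tk'ts 13 cells stably co-expressing human calcitonin receptor and a CRE-luciferase reporter, seeded overnight at 37 °C. Bound tracer counted by scintillation after cold HBSS washes and NaOH/SDS lysis; IC₅₀ from one-site competition fit taken as receptor affinity.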

Binder	IC50 [nM]
{C20 diacid-γGlu}-ASELSTAALGRLSAELHELATLPRTETGSGSF-NH2 (SMILES CC(C)C[C@H](NC(=O)[C@H](C)NC(=O)[C@H](C)NC(=O)[C@@H](NC(=O)[C@H](CO)NC(=O)[C@H](CC(C)C)NC(=O)[C@H](CCC(=O)O)NC(=O)[C@H](CO)NC(=O)[C@H](C)NC(=O)CC[C@H](NC(=O)CCCCCCCCCCCCCCCCCCC(=O)O)C(=O)O)[C@@H](C)O)C(=O)NCC(=O)N[C@@H](CCCNC(=N)N)C(=O)N[C@@H](CC(C)C)C(=O)N[C@@H](CO)C(=O)N[C@@H](C)C(=O)N[C@@H](CCC(=O)O)C(=O)N[C@@H](CC(C)C)C(=O)N[C@@H](Cc1c[nH]cn1)C(=O)N[C@@H](CCC(=O)O)C(=O)N[C@@H](CC(C)C)C(=O)N[C@@H](C)C(=O)N[C@H](C(=O)N[C@@H](CC(C)C)C(=O)N1CCC[C@H]1C(=O)N[C@@H](CCCNC(=N)N)C(=O)N[C@H](C(=O)N[C@@H](CCC(=O)O)C(=O)N[C@H](C(=O)NCC(=O)N[C@@H](CO)C(=O)NCC(=O)N[C@@H](CO)C(=O)N[C@@H](Cc1ccccc1)C(N)=O)[C@@H](C)O)[C@@H](C)O)[C@@H](C)O, also called Ex. #61) [[N-terminal(C20 diacid-gGlu), des1, 30S, 31G, 33F]mimylin]	1.76
{C20 diacid-γGlu}-ASELSTAALGRLSAELHELATYPRTETGSGSP-NH2 (SMILES CC(C)C[C@H](NC(=O)[C@H](C)NC(=O)[C@H](C)NC(=O)[C@@H](NC(=O)[C@H](CO)NC(=O)[C@H](CC(C)C)NC(=O)[C@H](CCC(=O)O)NC(=O)[C@H](CO)NC(=O)[C@H](C)NC(=O)CC[C@H](NC(=O)CCCCCCCCCCCCCCCCCCC(=O)O)C(=O)O)[C@@H](C)O)C(=O)NCC(=O)N[C@@H](CCCNC(=N)N)C(=O)N[C@@H](CC(C)C)C(=O)N[C@@H](CO)C(=O)N[C@@H](C)C(=O)N[C@@H](CCC(=O)O)C(=O)N[C@@H](CC(C)C)C(=O)N[C@@H](Cc1c[nH]cn1)C(=O)N[C@@H](CCC(=O)O)C(=O)N[C@@H](CC(C)C)C(=O)N[C@@H](C)C(=O)N[C@H](C(=O)N[C@@H](Cc1ccc(O)cc1)C(=O)N1CCC[C@H]1C(=O)N[C@@H](CCCNC(=N)N)C(=O)N[C@H](C(=O)N[C@@H](CCC(=O)O)C(=O)N[C@H](C(=O)NCC(=O)N[C@@H](CO)C(=O)NCC(=O)N[C@@H](CO)C(=O)N1CCC[C@H]1C(N)=O)[C@@H](C)O)[C@@H](C)O)[C@@H](C)O, also called Ex. #56) [[N-terminal(C20 diacid-gGlu), des1, 23Y, 30S, 31G]mimylin]	2.94
{C20 diacid-γGlu}-ASELSTAALGRLSAELHELATYPRTETGSGAP-NH2 (SMILES CC(C)C[C@H](NC(=O)[C@H](C)NC(=O)[C@H](C)NC(=O)[C@@H](NC(=O)[C@H](CO)NC(=O)[C@H](CC(C)C)NC(=O)[C@H](CCC(=O)O)NC(=O)[C@H](CO)NC(=O)[C@H](C)NC(=O)CC[C@H](NC(=O)CCCCCCCCCCCCCCCCCCC(=O)O)C(=O)O)[C@@H](C)O)C(=O)NCC(=O)N[C@@H](CCCNC(=N)N)C(=O)N[C@@H](CC(C)C)C(=O)N[C@@H](CO)C(=O)N[C@@H](C)C(=O)N[C@@H](CCC(=O)O)C(=O)N[C@@H](CC(C)C)C(=O)N[C@@H](Cc1c[nH]cn1)C(=O)N[C@@H](CCC(=O)O)C(=O)N[C@@H](CC(C)C)C(=O)N[C@@H](C)C(=O)N[C@H](C(=O)N[C@@H](Cc1ccc(O)cc1)C(=O)N1CCC[C@H]1C(=O)N[C@@H](CCCNC(=N)N)C(=O)N[C@H](C(=O)N[C@@H](CCC(=O)O)C(=O)N[C@H](C(=O)NCC(=O)N[C@@H](CO)C(=O)NCC(=O)N[C@@H](C)C(=O)N1CCC[C@H]1C(N)=O)[C@@H](C)O)[C@@H](C)O)[C@@H](C)O, also called Ex. #81) [[N-terminal(C20 diacid-gGlu), des1, 23Y, 30S, 31G, 32A]mimylin]	4.93
{C20 diacid-γGlu}-ASELSTAALGRLSAELHELATYPRTETGSGSY-OH (also called Ex. #88) [[N-terminal(C20 diacid-gGlu), des1, 23Y, 30S, 31G, 33Y, C-terminal(-)]mimylin]	24.2
{C20 diacid-γGlu}-ASELSTAALGRLSAELHELATLPRTETGSGSG-NH2 (SMILES CC(C)C[C@H](NC(=O)[C@H](C)NC(=O)[C@H](C)NC(=O)[C@@H](NC(=O)[C@H](CO)NC(=O)[C@H](CC(C)C)NC(=O)[C@H](CCC(=O)O)NC(=O)[C@H](CO)NC(=O)[C@H](C)NC(=O)CC[C@H](NC(=O)CCCCCCCCCCCCCCCCCCC(=O)O)C(=O)O)[C@@H](C)O)C(=O)NCC(=O)N[C@@H](CCCNC(=N)N)C(=O)N[C@@H](CC(C)C)C(=O)N[C@@H](CO)C(=O)N[C@@H](C)C(=O)N[C@@H](CCC(=O)O)C(=O)N[C@@H](CC(C)C)C(=O)N[C@@H](Cc1c[nH]cn1)C(=O)N[C@@H](CCC(=O)O)C(=O)N[C@@H](CC(C)C)C(=O)N[C@@H](C)C(=O)N[C@H](C(=O)N[C@@H](CC(C)C)C(=O)N1CCC[C@H]1C(=O)N[C@@H](CCCNC(=N)N)C(=O)N[C@H](C(=O)N[C@@H](CCC(=O)O)C(=O)N[C@H](C(=O)NCC(=O)N[C@@H](CO)C(=O)NCC(=O)N[C@@H](CO)C(=O)NCC(N)=O)[C@@H](C)O)[C@@H](C)O)[C@@H](C)O, also called Ex. #64) [[N-terminal(C20 diacid-gGlu), des1, 30S, 31G, 33G]mimylin]	3.63
{C20 diacid-γGlu}-ASELSTAALGRLSAELHELATLPRTETGSGSH-NH2 (SMILES CC(C)C[C@H](NC(=O)[C@H](C)NC(=O)[C@H](C)NC(=O)[C@@H](NC(=O)[C@H](CO)NC(=O)[C@H](CC(C)C)NC(=O)[C@H](CCC(=O)O)NC(=O)[C@H](CO)NC(=O)[C@H](C)NC(=O)CC[C@H](NC(=O)CCCCCCCCCCCCCCCCCCC(=O)O)C(=O)O)[C@@H](C)O)C(=O)NCC(=O)N[C@@H](CCCNC(=N)N)C(=O)N[C@@H](CC(C)C)C(=O)N[C@@H](CO)C(=O)N[C@@H](C)C(=O)N[C@@H](CCC(=O)O)C(=O)N[C@@H](CC(C)C)C(=O)N[C@@H](Cc1c[nH]cn1)C(=O)N[C@@H](CCC(=O)O)C(=O)N[C@@H](CC(C)C)C(=O)N[C@@H](C)C(=O)N[C@H](C(=O)N[C@@H](CC(C)C)C(=O)N1CCC[C@H]1C(=O)N[C@@H](CCCNC(=N)N)C(=O)N[C@H](C(=O)N[C@@H](CCC(=O)O)C(=O)N[C@H](C(=O)NCC(=O)N[C@@H](CO)C(=O)NCC(=O)N[C@@H](CO)C(=O)N[C@@H](Cc1c[nH]cn1)C(N)=O)[C@@H](C)O)[C@@H](C)O)[C@@H](C)O, also called Ex. #60) [[N-terminal(C20 diacid-gGlu), des1, 30S, 31G, 33H]mimylin]	1.53

Now those with a lower IC50, led by results:

IC50 [nM]	Binder
0.307	{C20 diacid-γGlu}-ASELSTAALGRLSAELHELSTYPRTETGSGSY-NH2 (SMILES CC(C)C[C@H](NC(=O)[C@H](C)NC(=O)[C@H](C)NC(=O)[C@@H](NC(=O)[C@H](CO)NC(=O)[C@H](CC(C)C)NC(=O)[C@H](CCC(=O)O)NC(=O)[C@H](CO)NC(=O)[C@H](C)NC(=O)CC[C@H](NC(=O)CCCCCCCCCCCCCCCCCCC(=O)O)C(=O)O)[C@@H](C)O)C(=O)NCC(=O)N[C@@H](CCCNC(=N)N)C(=O)N[C@@H](CC(C)C)C(=O)N[C@@H](CO)C(=O)N[C@@H](C)C(=O)N[C@@H](CCC(=O)O)C(=O)N[C@@H](CC(C)C)C(=O)N[C@@H](Cc1c[nH]cn1)C(=O)N[C@@H](CCC(=O)O)C(=O)N[C@@H](CC(C)C)C(=O)N[C@@H](CO)C(=O)N[C@H](C(=O)N[C@@H](Cc1ccc(O)cc1)C(=O)N1CCC[C@H]1C(=O)N[C@@H](CCCNC(=N)N)C(=O)N[C@H](C(=O)N[C@@H](CCC(=O)O)C(=O)N[C@H](C(=O)NCC(=O)N[C@@H](CO)C(=O)NCC(=O)N[C@@H](CO)C(=O)N[C@@H](Cc1ccc(O)cc1)C(N)=O)[C@@H](C)O)[C@@H](C)O)[C@@H](C)O, also called Ex. #97) [[N-terminal(C20 diacid-gGlu), des1, 21S, 23Y, 30S, 31G, 33Y]mimylin]
1.25	{C20 diacid-γGlu}-ASELSTAALGRLSAELHELATLPRTETGSGSA-NH2 (SMILES CC(C)C[C@H](NC(=O)[C@H](C)NC(=O)[C@H](C)NC(=O)[C@@H](NC(=O)[C@H](CO)NC(=O)[C@H](CC(C)C)NC(=O)[C@H](CCC(=O)O)NC(=O)[C@H](CO)NC(=O)[C@H](C)NC(=O)CC[C@H](NC(=O)CCCCCCCCCCCCCCCCCCC(=O)O)C(=O)O)[C@@H](C)O)C(=O)NCC(=O)N[C@@H](CCCNC(=N)N)C(=O)N[C@@H](CC(C)C)C(=O)N[C@@H](CO)C(=O)N[C@@H](C)C(=O)N[C@@H](CCC(=O)O)C(=O)N[C@@H](CC(C)C)C(=O)N[C@@H](Cc1c[nH]cn1)C(=O)N[C@@H](CCC(=O)O)C(=O)N[C@@H](CC(C)C)C(=O)N[C@@H](C)C(=O)N[C@H](C(=O)N[C@@H](CC(C)C)C(=O)N1CCC[C@H]1C(=O)N[C@@H](CCCNC(=N)N)C(=O)N[C@H](C(=O)N[C@@H](CCC(=O)O)C(=O)N[C@H](C(=O)NCC(=O)N[C@@H](CO)C(=O)NCC(=O)N[C@@H](CO)C(=O)N[C@@H](C)C(N)=O)[C@@H](C)O)[C@@H](C)O)[C@@H](C)O, also called Ex. #65) [[N-terminal(C20 diacid-gGlu), des1, 30S, 31G, 33A]mimylin]
0.442	{C20 diacid-γGlu}-ASELSTAALGRLSAELHELATLPHTETGSGSP-NH2 (SMILES CC(C)C[C@H](NC(=O)[C@H](C)NC(=O)[C@H](C)NC(=O)[C@@H](NC(=O)[C@H](CO)NC(=O)[C@H](CC(C)C)NC(=O)[C@H](CCC(=O)O)NC(=O)[C@H](CO)NC(=O)[C@H](C)NC(=O)CC[C@H](NC(=O)CCCCCCCCCCCCCCCCCCC(=O)O)C(=O)O)[C@@H](C)O)C(=O)NCC(=O)N[C@@H](CCCNC(=N)N)C(=O)N[C@@H](CC(C)C)C(=O)N[C@@H](CO)C(=O)N[C@@H](C)C(=O)N[C@@H](CCC(=O)O)C(=O)N[C@@H](CC(C)C)C(=O)N[C@@H](Cc1c[nH]cn1)C(=O)N[C@@H](CCC(=O)O)C(=O)N[C@@H](CC(C)C)C(=O)N[C@@H](C)C(=O)N[C@H](C(=O)N[C@@H](CC(C)C)C(=O)N1CCC[C@H]1C(=O)N[C@@H](Cc1c[nH]cn1)C(=O)N[C@H](C(=O)N[C@@H](CCC(=O)O)C(=O)N[C@H](C(=O)NCC(=O)N[C@@H](CO)C(=O)NCC(=O)N[C@@H](CO)C(=O)N1CCC[C@H]1C(N)=O)[C@@H](C)O)[C@@H](C)O)[C@@H](C)O, also called Ex. #73) [[N-terminal(C20 diacid-gGlu), des1, 25H, 30S, 31G]mimylin]

From US20160272683A1 (Novo Nordisk, published 2016)
